Data published in publication PMC10786891, “Massively parallel profiling of RNA-targeting CRISPR-Cas13d”.

T1: EsCas13d, nuclease-dead (Eubacterium siraeum, UniProt B0MS50, R295A;H300A;R849A;H854A)
T1 sequence: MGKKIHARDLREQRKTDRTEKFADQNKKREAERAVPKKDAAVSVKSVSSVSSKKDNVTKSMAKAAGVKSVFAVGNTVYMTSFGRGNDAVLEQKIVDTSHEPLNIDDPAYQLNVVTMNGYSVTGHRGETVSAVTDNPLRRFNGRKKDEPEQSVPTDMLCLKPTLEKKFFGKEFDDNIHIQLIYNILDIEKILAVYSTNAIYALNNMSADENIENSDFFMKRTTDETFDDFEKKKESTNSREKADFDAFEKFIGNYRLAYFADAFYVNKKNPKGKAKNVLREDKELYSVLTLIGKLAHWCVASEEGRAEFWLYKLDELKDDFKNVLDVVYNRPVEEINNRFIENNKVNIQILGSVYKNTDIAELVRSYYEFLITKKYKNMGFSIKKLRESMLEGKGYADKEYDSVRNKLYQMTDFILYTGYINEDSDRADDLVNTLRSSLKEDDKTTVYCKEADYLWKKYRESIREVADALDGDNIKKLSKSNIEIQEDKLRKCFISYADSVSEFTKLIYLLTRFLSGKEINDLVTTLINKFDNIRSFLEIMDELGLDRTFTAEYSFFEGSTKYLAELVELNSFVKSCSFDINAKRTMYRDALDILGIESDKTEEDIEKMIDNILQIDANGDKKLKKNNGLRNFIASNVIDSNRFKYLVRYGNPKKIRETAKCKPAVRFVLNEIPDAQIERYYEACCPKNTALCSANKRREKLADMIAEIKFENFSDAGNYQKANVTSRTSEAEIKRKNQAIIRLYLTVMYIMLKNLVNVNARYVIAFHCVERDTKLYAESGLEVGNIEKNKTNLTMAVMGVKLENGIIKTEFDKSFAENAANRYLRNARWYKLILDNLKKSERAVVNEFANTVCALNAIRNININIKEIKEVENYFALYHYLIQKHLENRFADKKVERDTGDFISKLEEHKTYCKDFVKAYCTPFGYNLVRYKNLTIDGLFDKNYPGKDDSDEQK


Target: T1, EsCas13d, nuclease-dead
Experiment: crRNA (strand 1, pre-loaded); Mg2+; 40 mM Tris-HCl pH 7.5, 150 mM NaCl, 6 mM MgCl2, 1 mM DTT, 0.1% Tween-20, 0.2 mg/ml BSA; 25 C; 10 min per concentration, then washed
Details: tags: His6-TwinStrep-SUMO cleaved; N-terminal SNAP kept (SNAP-Surface 488); label: 3' end held by stalled T7 RNA polymerase

| Binder | Kd [µM] |
| --- | --- |
| target 1 MT 5'PFS AAA 3'PFS ACG (mixed) RNA 1: CACCCGUGCAAAAAUGCAGGGGUCUAAAACUGAGCGGAUAACCUCUCUAUGG RNA 2: GGGAAUGGAUCCACAUCUACGAAUUCAAACCAUAGAGAGGUUAUCCGCUCAACGAGAUCGGAAGAGCACACGU | 0.0186 ± 0.00445 |
| target 1 MT 5'PFS GCA 3'PFS UCU (mixed) RNA 1: CACCCGUGCAAAAAUGCAGGGGUCUAAAACUGAGCGGAUAACCUCUCUAUGG RNA 2: GGGAAUGGAUCCACAUCUACGAAUUCGCACCAUAGAGAGGUUAUCCGCUCAUCUAGAUCGGAAGAGCACACGU | 0.0106 ± 0.00255 |
| target 1 MT 5'PFS CCU 3'PFS CGC (mixed) RNA 1: CACCCGUGCAAAAAUGCAGGGGUCUAAAACUGAGCGGAUAACCUCUCUAUGG RNA 2: GGGAAUGGAUCCACAUCUACGAAUUCCCUCCAUAGAGAGGUUAUCCGCUCACGCAGAUCGGAAGAGCACACGU | ~0.0155 |
| target 1 MT 5'PFS GUU 3'PFS UGC (mixed) RNA 1: CACCCGUGCAAAAAUGCAGGGGUCUAAAACUGAGCGGAUAACCUCUCUAUGG RNA 2: GGGAAUGGAUCCACAUCUACGAAUUCGUUCCAUAGAGAGGUUAUCCGCUCAUGCAGAUCGGAAGAGCACACGU | 0.0155 ± 0.0027 |
| target 1 MT 5'PFS GGA 3'PFS GAG (mixed) RNA 1: CACCCGUGCAAAAAUGCAGGGGUCUAAAACUGAGCGGAUAACCUCUCUAUGG RNA 2: GGGAAUGGAUCCACAUCUACGAAUUCGGACCAUAGAGAGGUUAUCCGCUCAGAGAGAUCGGAAGAGCACACGU | 0.019 ± 0.006 |
| target 1 MT 5'PFS UCG 3'PFS AUU (mixed) RNA 1: CACCCGUGCAAAAAUGCAGGGGUCUAAAACUGAGCGGAUAACCUCUCUAUGG RNA 2: GGGAAUGGAUCCACAUCUACGAAUUCUCGCCAUAGAGAGGUUAUCCGCUCAAUUAGAUCGGAAGAGCACACGU | 0.0325 ± 0.0105 |
| target 1 MT 5'PFS CCG 3'PFS ACA (mixed) RNA 1: CACCCGUGCAAAAAUGCAGGGGUCUAAAACUGAGCGGAUAACCUCUCUAUGG RNA 2: GGGAAUGGAUCCACAUCUACGAAUUCCCGCCAUAGAGAGGUUAUCCGCUCAACAAGAUCGGAAGAGCACACGU | 0.0385 ± 0.013 |
| target 1 C6U,U19C (mixed) RNA 1: CACCCGUGCAAAAAUGCAGGGGUCUAAAACUGAGCGGAUAACCUCUCUAUGG RNA 2: GGGAAUGGAUCCACAUCUACGAAUUCGUACCACAGAGAGGUUAUCUGCUCACCGAGAUCGGAAGAGCACACGU | 0.0297 ± 0.002 |
| target 1 MT 5'PFS AAC 3'PFS AAG (mixed) RNA 1: CACCCGUGCAAAAAUGCAGGGGUCUAAAACUGAGCGGAUAACCUCUCUAUGG RNA 2: GGGAAUGGAUCCACAUCUACGAAUUCAACCCAUAGAGAGGUUAUCCGCUCAAAGAGAUCGGAAGAGCACACGU | 0.0345 ± 0.015 |
| target 1 del4,del8 (mixed) RNA 1: CACCCGUGCAAAAAUGCAGGGGUCUAAAACUGAGCGGAUAACCUCUCUAUGG RNA 2: GGGAAUGGAUCCACAUCUACGAAUUCGUACCAUAGAGAGGUUACCGUCACCGAGAUCGGAAGAGCACACGU | 0.0121 ± 0.001 |
| target 1 MT 5'PFS GCA 3'PFS AGC (mixed) RNA 1: CACCCGUGCAAAAAUGCAGGGGUCUAAAACUGAGCGGAUAACCUCUCUAUGG RNA 2: GGGAAUGGAUCCACAUCUACGAAUUCGCACCAUAGAGAGGUUAUCCGCUCAAGCAGAUCGGAAGAGCACACGU | 0.0285 ± 0.014 |
| target 1 MT 5'PFS AAC 3'PFS AAC (mixed) RNA 1: CACCCGUGCAAAAAUGCAGGGGUCUAAAACUGAGCGGAUAACCUCUCUAUGG RNA 2: GGGAAUGGAUCCACAUCUACGAAUUCAACCCAUAGAGAGGUUAUCCGCUCAAACAGAUCGGAAGAGCACACGU | 0.0845 ± 0.0415 |
| target 1 MT 5'PFS ACC 3'PFS UAC (mixed) RNA 1: CACCCGUGCAAAAAUGCAGGGGUCUAAAACUGAGCGGAUAACCUCUCUAUGG RNA 2: GGGAAUGGAUCCACAUCUACGAAUUCACCCCAUAGAGAGGUUAUCCGCUCAUACAGAUCGGAAGAGCACACGU | 0.031 ± 0.0145 |
| target 1 MT 5'PFS AAA 3'PFS ACU (mixed) RNA 1: CACCCGUGCAAAAAUGCAGGGGUCUAAAACUGAGCGGAUAACCUCUCUAUGG RNA 2: GGGAAUGGAUCCACAUCUACGAAUUCAAACCAUAGAGAGGUUAUCCGCUCAACUAGAUCGGAAGAGCACACGU | 0.0121 ± 0.0026 |
| target 1 MT 5'PFS GAG 3'PFS CGG (mixed) RNA 1: CACCCGUGCAAAAAUGCAGGGGUCUAAAACUGAGCGGAUAACCUCUCUAUGG RNA 2: GGGAAUGGAUCCACAUCUACGAAUUCGAGCCAUAGAGAGGUUAUCCGCUCACGGAGAUCGGAAGAGCACACGU | ~0.1 |
| target 1 MT 5'PFS GGC 3'PFS CCG (mixed) RNA 1: CACCCGUGCAAAAAUGCAGGGGUCUAAAACUGAGCGGAUAACCUCUCUAUGG RNA 2: GGGAAUGGAUCCACAUCUACGAAUUCGGCCCAUAGAGAGGUUAUCCGCUCACCGAGAUCGGAAGAGCACACGU | 0.00835 ± 0.0014 |
| target 1 MT 5'PFS ACC 3'PFS UAG (mixed) RNA 1: CACCCGUGCAAAAAUGCAGGGGUCUAAAACUGAGCGGAUAACCUCUCUAUGG RNA 2: GGGAAUGGAUCCACAUCUACGAAUUCACCCCAUAGAGAGGUUAUCCGCUCAUAGAGAUCGGAAGAGCACACGU | ~0.0145 |
| target 1 MT 5'PFS GUU 3'PFS UGU (mixed) RNA 1: CACCCGUGCAAAAAUGCAGGGGUCUAAAACUGAGCGGAUAACCUCUCUAUGG RNA 2: GGGAAUGGAUCCACAUCUACGAAUUCGUUCCAUAGAGAGGUUAUCCGCUCAUGUAGAUCGGAAGAGCACACGU | 0.0345 ± 0.0065 |
| target 1 MT 5'PFS UCG 3'PFS AUC (mixed) RNA 1: CACCCGUGCAAAAAUGCAGGGGUCUAAAACUGAGCGGAUAACCUCUCUAUGG RNA 2: GGGAAUGGAUCCACAUCUACGAAUUCUCGCCAUAGAGAGGUUAUCCGCUCAAUCAGAUCGGAAGAGCACACGU | 0.042 ± 0.013 |
| target 1 MT 5'PFS GGC 3'PFS CCA (mixed) RNA 1: CACCCGUGCAAAAAUGCAGGGGUCUAAAACUGAGCGGAUAACCUCUCUAUGG RNA 2: GGGAAUGGAUCCACAUCUACGAAUUCGGCCCAUAGAGAGGUUAUCCGCUCACCAAGAUCGGAAGAGCACACGU | 0.0315 ± 0.0105 |
| target 1 insU 3' of 13,insU 3' of 13 (mixed) RNA 1: CACCCGUGCAAAAAUGCAGGGGUCUAAAACUGAGCGGAUAACCUCUCUAUGG RNA 2: GGGAAUGGAUCCACAUCUACGAAUUCGUACCAUAGAGAGUUGUUAUCCGCUCACCGAGAUCGGAAGAGCACACGU | 0.0065 ± 0.0006 |
| target 1 MT 5'PFS AAC 3'PFS CCG (mixed) RNA 1: CACCCGUGCAAAAAUGCAGGGGUCUAAAACUGAGCGGAUAACCUCUCUAUGG RNA 2: GGGAAUGGAUCCACAUCUACGAAUUCAACCCAUAGAGAGGUUAUCCGCUCACCGAGAUCGGAAGAGCACACGU | 0.0195 ± 0.00445 |
| target 1 MT 5'PFS GUU 3'PFS UGA (mixed) RNA 1: CACCCGUGCAAAAAUGCAGGGGUCUAAAACUGAGCGGAUAACCUCUCUAUGG RNA 2: GGGAAUGGAUCCACAUCUACGAAUUCGUUCCAUAGAGAGGUUAUCCGCUCAUGAAGAUCGGAAGAGCACACGU | 0.0168 ± 0.0025 |
| target 1 MT 5'PFS CCG 3'PFS CAC (mixed) RNA 1: CACCCGUGCAAAAAUGCAGGGGUCUAAAACUGAGCGGAUAACCUCUCUAUGG RNA 2: GGGAAUGGAUCCACAUCUACGAAUUCCCGCCAUAGAGAGGUUAUCCGCUCACACAGAUCGGAAGAGCACACGU | 0.00645 ± 0.00275 |
| target 1 MT 5'PFS GAG 3'PFS CGA (mixed) RNA 1: CACCCGUGCAAAAAUGCAGGGGUCUAAAACUGAGCGGAUAACCUCUCUAUGG RNA 2: GGGAAUGGAUCCACAUCUACGAAUUCGAGCCAUAGAGAGGUUAUCCGCUCACGAAGAUCGGAAGAGCACACGU | ~0.049 |
| target 1 MT 5'PFS AAA 3'PFS CAC (mixed) RNA 1: CACCCGUGCAAAAAUGCAGGGGUCUAAAACUGAGCGGAUAACCUCUCUAUGG RNA 2: GGGAAUGGAUCCACAUCUACGAAUUCAAACCAUAGAGAGGUUAUCCGCUCACACAGAUCGGAAGAGCACACGU | 0.0295 ± 0.0115 |
| target 1 MT 5'PFS AAG 3'PFS AAG (mixed) RNA 1: CACCCGUGCAAAAAUGCAGGGGUCUAAAACUGAGCGGAUAACCUCUCUAUGG RNA 2: GGGAAUGGAUCCACAUCUACGAAUUCAAGCCAUAGAGAGGUUAUCCGCUCAAAGAGAUCGGAAGAGCACACGU | 0.0205 ± 0.0045 |
| target 1 MT 5'PFS AGG 3'PFS CAG (mixed) RNA 1: CACCCGUGCAAAAAUGCAGGGGUCUAAAACUGAGCGGAUAACCUCUCUAUGG RNA 2: GGGAAUGGAUCCACAUCUACGAAUUCAGGCCAUAGAGAGGUUAUCCGCUCACAGAGAUCGGAAGAGCACACGU | ~0.041 |
